Measured values taken from patent publication US20120294822A1 (ALDERBIO, published 2012).

T1: Homo sapiens CGRP-alpha (Calcitonin Gene Related Peptide alpha) (Homo sapiens, -NH2 at the C-terminal end as printed ('wherein the N-terminal phenylalanine is amidated'); 125I radiolabeled in the receptor binding assay of Example 6)
T1 construct: 37-residue synthetic peptide from American Peptides / Bachem; Coated directly on the plate in the ELISA of recombinant antibodies; also called CGRPα; human CGRPα
T1 peptide: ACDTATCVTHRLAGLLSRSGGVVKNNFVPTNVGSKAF


Target: T1, Homo sapiens CGRP-alpha (Calcitonin …)
Assay: ELISA, CGRPα coated on plate, anti-human IgG Fc-HRP detection
Experimental: To characterize recombinant expressed antibodies for their ability to bind to human-CGRPα antibody-containing solutions were tested by ELISA. All incubations were done at room temperature. Briefly, Immulon IV plagtes (Thermo Scientific), were coated with a CGRPα containing solution (1 ut/mL in PBS) for 2 hours. CGRPα-coated plates were then washed three times in wash buffer (PBS, 0.05% Tween-20). The plates were then blocked using a blocking solution (PBS, 0.5% fish skin gelatin, 0.05% Tween-20) for approximately one hour. The blocking solution was then removed and the plates were then incubated with a dilution series of the antibody being tested for approximately one hour. At the end of this incubation, the plate was washed three times with wash buffer and further incubated with a secondary antibody containing solution (Peroxidase conjugated affinipure F(ab′)2 fragment goat anti-human IgG, Fc fragment specific (Jackson Immunoresearch) for approximately 45 minutes and washed three times. At that point a substrate solution (TMB peroxidase substrate, BioFx) and incubated for 3 to 5 minutes in the dark. The reaction was stopped by addition of a HCl containing solution (0.5M) and the plate was read at 450 nm in a plate-reader.

Row | Binder | binding result
1 | Antibody Ab1 (antibody, human IgG1, kappa, N297A, V domains shown, Chimeric (rabbit variable, human gamma-1/kappa constant) full-length anti-CGRP antibody) VH: QSLEESGGRLVTPGTPLTLTCTVSGLDLSSYYMQWVRQAPGKGLEWIGVIGINDNTYYASWAKGRFTISRASSTTVDLKMTSLTTEDTATYFCARGDIWGPGTLVTVSS VL: QVLTQTASPVSAAVGSTVTINCQASQSVYDNNYLAWYQQKPGQPPKQLIYSTSTLASGVSSRFKGSGSGTQFTLTISDLECADAATYYCLGSYDCSSGDCFVFGGGTEVVVKR | binds
2 | Antibody Ab11 (antibody, human IgG1, kappa, N297A, V domains shown, Chimeric full-length anti-CGRP antibody; also called Abll) VH: QSLEESGGRLVTPGGSLTLTCTVSGIDVTNYYMQWVRQAPGKGLEWIGVIGVNGKRYYASWAKGRFTISKTSSTTVDLKMTSLTTEDTATYFCARGDIWGPGTLVTVSS VL: QVLTQTASPVSPAVGSTVTINCRASQSVYYNNYLAWYQQKPGQPPKQLIYSTSTLASGVSSRFKGSGSGTQFTLTISDVQCDDAATYYCLGSYDCSNGDCFVFGGGTEVVVKR | binds
3 | Antibody Ab9 (antibody, human IgG1, kappa, N297A, V domains shown, Chimeric full-length anti-CGRP antibody) VH: QSLEESGGRLVTPGTPLTLTCTVSGIGLSSYYMQWVRQSPGRGLEWIGVIGSDGKTYYATWAKGRFTISKTSSTTVDLRMASLTTEDTATYFCTRGDIWGPGTLVTVSS VL: QVLTQTPSPVSAAVGSTVTINCQASQNVYNNNYLAWYQQKPGQPPKQLIYSTSTLASGVSSRFRGSGSGTQFTLTISDVQCDDAATYYCLGSYDCSRGDCFVFGGGTEVVVKR | binds
4 | Antibody Ab2 (antibody, human IgG1, kappa, N297A, Humanized full-length anti-CGRP antibody) heavy: not shown light: QVLTQSPSSLSASVGDRVTINCQASQSVYDNNYLAWYQQKPGKVPKQLIYSTSTLASGVPSRFSGSGSGTDFTLTISSLQPEDVATYYCLGSYDCSSGDCFVFGGGTKVEIKRTVAAPSVFIFPPSDEQLKSGTASVVCLLNNFYPREAKVQWKVDNALQSGNSQESVTEQDSKDSTYSLSSTLTLSKADYEKHKVYACEVTHQGLSSPVTKSFNRGEC | binds
5 | Antibody Ab5 (antibody, human IgG1, kappa, N297A) heavy: not shown light: QVLTQSPSSLSASVGDRVTINCQASQSVYHNTYLAWYQQKPGKVPKQLIYDASTLASGVPSRFSGSGSGTDFTLTISSLQPEDVATYYCLGSYDCTNGDCFVFGGGTKVEIKRTVAAPSVFIFPPSDEQLKSGTASVVCLLNNFYPREAKVQWKVDNALQSGNSQESVTEQDSKDSTYSLSSTLTLSKADYEKHKVYACEVTHQGLSSPVTKSFNRGEC | binds
6 | Antibody Ab3 (antibody, human IgG1, kappa, N297A) heavy: not shown light: QVLTQSPSSLSASVGDRVTINCQASQSVYDNNYLAWYQQKPGKVPKQLIYSTSTLASGVPSRFSGSGSGTDFTLTISSLQPEDVATYYCLGSYDCSSGDCFVFGGGTKVEIKRTVAAPSVFIFPPSDEQLKSGTASVVCLLNNFYPREAKVQWKVDNALQSGNSQESVTEQDSKDSTYSLSSTLTLSKADYEKHKVYACEVTHQGLSSPVTKSFNRGEC | binds
7 | Antibody Ab6 (antibody, human IgG1, kappa, N297A, Humanized full-length anti-CGRP antibody) heavy: not shown light: QVLTQSPSSLSASVGDRVTINCQASQSVYHNTYLAWYQQKPGKVPKQLIYDASTLASGVPSRFSGSGSGTDFTLTISSLQPEDVATYYCLGSYDCTNGDCFVFGGGTKVEIKRTVAAPSVFIFPPSDEQLKSGTASVVCLLNNFYPREAKVQWKVDNALQSGNSQESVTEQDSKDSTYSLSSTLTLSKADYEKHKVYACEVTHQGLSSPVTKSFNRGEC | binds
8 | Antibody Ab14 (antibody, human IgG1, kappa, N297A, Humanized full-length anti-CGRP antibody) heavy: not shown light: QVLTQSPSSLSASVGDRVTINCQASQNVYNNNYLAWYQQKPGKVPKQLIYSTSTLASGVPSRFSGSGSGTDFTLTISSLQPEDVATYYCLGSYDCSRGDCFVFGGGTKVEIKRTVAAPSVFIFPPSDEQLKSGTASVVCLLNNFYPREAKVQWKVDNALQSGNSQESVTEQDSKDSTYSLSSTLTLSKADYEKHKVYACEVTHQGLSSPVTKSFNRGEC | binds
9 | Antibody Ab12 (antibody, human IgG1, kappa, N297A, V domains shown, Humanized full-length anti-CGRP antibody) VH: EVQLVESGGGLVQPGGSLRLSCAVSGIDVTNYYMQWVRQAPGKGLEWVGVIGVNGKRYYASWAKGRFTISRDNSKTTVYLQMNSLRAEDTAVYFCARGDIWGQGTLVTVSS VL: QVLTQSPSSLSASVGDRVTINCRASQSVYYNNYLAWYQQKPGKVPKQLIYSTSTLASGVPSRFSGSGSGTDFTLTISSLQPEDVATYYCLGSYDCSNGDCFVFGGGTKVEIKR | binds

The remaining lines, values ahead:

Row | binding result | Binder
10 | binds | Antibody Ab4 (antibody, human IgG1, kappa, N297A, V domains shown) VH: QSLEESGGRLVTPGTPLTLTCSVSGIDLSGYYMNWVRQAPGKGLEWIGVIGINGATYYASWAKGRFTISKTSSTTVDLKMTSLTTEDTATYFCARGDIWGPGTLVTVSS VL: QVLTQTPSPVSAAVGSTVTINCQASQSVYHNTYLAWYQQKPGQPPKQLIYDASTLASGVPSRFSGSGSGTQFTLTISGVQCNDAAAYYCLGSYDCTNGDCFVFGGGTEVVVKR
11 | binds | Antibody Ab7 (antibody, human IgG1, kappa, N297A, V domains shown, Chimeric full-length anti-CGRP antibody) VH: QEQLKESGGRLVTPGTSLTLTCTVSGIDLSNHYMQWVRQAPGKGLEWIGVVGINGRTYYASWAKGRFTISRTSSTTVDLKMTRLTTEDTATYFCARGDIWGPGTLVTVSS VL: QVLTQTASPVSAAVGSTVTINCQASQSVYNYNYLAWYQQKPGQPPKQLIYSTSTLASGVSSRFKGSGSGTQFTLTISDVQCDDAATYYCLGSYDCSTGDCFVFGGGTEVVVKR
12 | binds | Antibody Ab10 (antibody, human IgG1, kappa, N297A, Humanized full-length anti-CGRP antibody) heavy: not shown light: QVLTQSPSSLSASVGDRVTINCQASQNVYNNNYLAWYQQKPGKVPKQLIYSTSTLASGVPSRFSGSGSGTDFTLTISSLQPEDVATYYCLGSYDCSRGDCFVFGGGTKVEIKRTVAAPSVFIFPPSDEQLKSGTASVVCLLNNFYPREAKVQWKVDNALQSGNSQESVTEQDSKDSTYSLSSTLTLSKADYEKHKVYACEVTHQGLSSPVTKSFNRGEC
13 | binds | Antibody Ab8 (antibody, human IgG1, kappa, N297A, V domains shown, Humanized full-length anti-CGRP antibody) VH: EVQLVESGGGLVQPGGSLRLSCAVSGIDLSNHYMQWVRQAPGKGLEWVGVVGINGRTYYASWAKGRFTISRDNSKTTVYLQMNSLRAEDTAVYFCARGDIWGQGTLVTVSS VL: QVLTQSPSSLSASVGDRVTINCQASQSVYNYNYLAWYQQKPGKVPKQLIYSTSTLASGVPSRFSGSGSGTDFTLTISSLQPEDVATYYCLGSYDCSTGDCFVFGGGTKVEIKR
